Test results taken from PMC8121779.

Target: LMW-E-T1 (low molecular weight form of cyclin E, T1), MMTV transgene in mouse salivary gland tumors

CDK1 (endogenous in mouse salivary gland tumors) (from UniProt P11440 1-297) (enzyme)
decrease of cyclin E-associated histone H1 kinase activity after 3 rounds of immunodepletion of CDK1 (90%), CDK2+/+ tumor lysate (sample 3085): 7%
decrease of cyclin E-associated histone H1 kinase activity after 3 rounds of immunodepletion of CDK1 (90%), CDK2-/- tumor lysate (sample 4111): 14%
